Source: EP2717941B1 (TLA Targeted Immunotherapies AB, dated 2020)
Groups on a side chain read outwards from the residue. *: point of attachment. Biotin = O=C1N[C@H]2[C@H](CS[C@H]2CCCCC(=O)*)N1; PEG = not defined here

Key:
Assay in all cases: cell-based or functional assay
[1] = target: T1, chemokine receptor CCR7 (human, UniProt P32248 25-378)
T1 sequence (looked up): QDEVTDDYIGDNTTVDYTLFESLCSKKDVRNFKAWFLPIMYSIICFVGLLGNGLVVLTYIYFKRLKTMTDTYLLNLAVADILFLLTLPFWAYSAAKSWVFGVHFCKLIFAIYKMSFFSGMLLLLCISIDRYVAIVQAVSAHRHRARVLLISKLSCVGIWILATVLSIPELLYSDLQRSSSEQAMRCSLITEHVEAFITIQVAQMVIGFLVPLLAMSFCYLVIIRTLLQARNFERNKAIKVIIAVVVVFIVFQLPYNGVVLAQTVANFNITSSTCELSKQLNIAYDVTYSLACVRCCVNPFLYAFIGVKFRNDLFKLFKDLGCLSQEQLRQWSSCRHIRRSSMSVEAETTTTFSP

[2] = target: hCCR5 (human, UniProt P51681 1-352)
hCCR5, sequence (P51681 whole entry): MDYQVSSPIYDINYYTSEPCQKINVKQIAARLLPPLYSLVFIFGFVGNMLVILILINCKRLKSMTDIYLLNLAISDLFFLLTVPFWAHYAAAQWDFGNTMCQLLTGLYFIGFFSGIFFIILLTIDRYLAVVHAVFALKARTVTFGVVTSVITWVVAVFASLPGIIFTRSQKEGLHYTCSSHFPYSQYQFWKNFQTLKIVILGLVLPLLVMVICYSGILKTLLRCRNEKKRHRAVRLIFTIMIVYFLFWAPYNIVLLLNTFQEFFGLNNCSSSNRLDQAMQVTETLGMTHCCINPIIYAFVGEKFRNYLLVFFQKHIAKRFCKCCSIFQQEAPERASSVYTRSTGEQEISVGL

[3] = target: T2, CCR4 (human, UniProt P51679 1-360)
T2 sequence (looked up): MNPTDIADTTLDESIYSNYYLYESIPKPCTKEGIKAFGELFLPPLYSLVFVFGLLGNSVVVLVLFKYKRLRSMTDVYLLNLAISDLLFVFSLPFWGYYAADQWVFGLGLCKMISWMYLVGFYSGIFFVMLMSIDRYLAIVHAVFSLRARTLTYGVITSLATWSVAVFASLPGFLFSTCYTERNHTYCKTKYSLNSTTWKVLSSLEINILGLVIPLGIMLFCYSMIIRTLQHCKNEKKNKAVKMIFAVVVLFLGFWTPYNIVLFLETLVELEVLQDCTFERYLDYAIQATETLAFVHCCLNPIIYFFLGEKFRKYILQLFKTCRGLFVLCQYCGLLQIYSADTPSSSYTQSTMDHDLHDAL

[4] = target: T3, hCXCR3 (human, UniProt P49682 1-368)
T3 sequence (looked up): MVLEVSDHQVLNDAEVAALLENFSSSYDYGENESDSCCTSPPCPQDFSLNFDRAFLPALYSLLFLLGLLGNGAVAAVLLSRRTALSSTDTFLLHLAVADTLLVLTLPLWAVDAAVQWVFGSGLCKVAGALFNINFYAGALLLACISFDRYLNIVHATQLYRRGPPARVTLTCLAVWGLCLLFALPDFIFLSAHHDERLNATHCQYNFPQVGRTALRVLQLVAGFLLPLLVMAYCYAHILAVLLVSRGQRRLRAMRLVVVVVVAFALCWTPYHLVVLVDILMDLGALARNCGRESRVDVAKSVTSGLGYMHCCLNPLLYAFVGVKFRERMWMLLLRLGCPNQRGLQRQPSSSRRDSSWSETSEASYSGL

[5] = target: T4, hCCR10 (human, UniProt P46092 1-362)
T4 sequence (looked up): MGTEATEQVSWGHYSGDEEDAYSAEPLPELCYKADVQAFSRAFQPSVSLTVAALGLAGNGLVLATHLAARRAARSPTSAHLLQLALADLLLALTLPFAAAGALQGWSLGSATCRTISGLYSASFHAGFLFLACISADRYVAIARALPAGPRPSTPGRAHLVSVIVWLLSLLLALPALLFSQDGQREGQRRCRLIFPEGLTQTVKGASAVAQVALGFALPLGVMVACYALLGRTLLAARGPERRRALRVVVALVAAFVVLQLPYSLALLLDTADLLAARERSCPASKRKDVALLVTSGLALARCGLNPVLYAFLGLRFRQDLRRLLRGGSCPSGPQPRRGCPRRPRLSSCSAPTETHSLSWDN

B1: biotinMIP-3β (CCL19), MIP-3β derivatised at the ε-amino side chain functionality of Lys(78) with Biotin (ligand)
chain: GTNDAEDCCLSVTQKPIPGYIVRNFHYLLIKDGCRVPAVVFTTLRGRQLCAPPDQPWVERIIQRLQRTSAKMKRRSSX
modifications: additional Lys(78) = K(Biotin); assembled on Rink Amide resin (C-terminal amide)
EC50, agonist activity, Aequorin assay [1]: 11 nM

B2: biotinRANTES (CCL5), RANTES derivatised at the ε-amino side chain functionality of Lys(67) with Biotin (ligand)
chain: SPYSSDTTPCCFAYIARPLPRAHIKEYFYTSGKCSNPAVVFVTRKNRQVCANPEKKWVREYINSLEK(Biotin)S
modifications: ends and bridges not checked
EC50, agonist activity, Aequorin assay [2]: 0.5 nM

B3: biotinTARC (CCL17), TARC derivatised at the ε-amino side chain functionality of Lys(72) with PEG-Biotin (ligand)
chain: ARGTNVGRECCLEYFKGAIPLRKLKTWYQTSEDCSRDAIVFVTVQGRAICSDPNNKRVKNAVKYLQSLERSK([PEG-Biotin])-NH2
modifications: ends and bridges not checked; also: TFA salt
EC50, agonist activity, Aequorin assay [3]: 3.1 nM

B4: biotinITAC (CXCL11), ITAC derivatised with Biotin at the ε-amino side chain functionality of an additional Lysine inserted at the C-terminus after a PEG spacer (ligand)
chain: FPMFKRGRCLCIGPGVKAVKVADIEKASIMYPSNNCDKIEVIITLKENKGQRCLNPKSKQARLIIKKVERKNFX
modifications: X (position 74) is PEG-K(Biotin): PEG spacer between the protein's C-terminus and an additional biotinylated lysine
EC50, agonist activity, Aequorin assay [4]: 15.7 nM

B5: biotinCTAC (CCL27), CTAC derivatised at the ε-amino side chain functionality of Lys(87) with PEG-Biotin (ligand)
chain: FLLPPSTACCTQLYRKPLSDKLLRKVIQVELQEADGDCHLQAFVLHLAQRSICIHPQNPSLSQWFEHQERKLHGTLPKLNFGMLRKK([PEG-Biotin])G
modifications: ends and bridges not checked
EC50, agonist activity, Aequorin assay [5]: 49.4 nM

B6: biotinMDC (CCL22), MDC derivatised at the ε-amino side chain functionality of Lys(66) with PEG-Biotin (ligand)
chain: GPYGANMEDSVCCRDYVRYRLPLRVVKHFYWTSDSCPRPGVVLLTFRDKEICADPRVPWVKMILNK([PEG-Biotin])LSQ-NH2
modifications: ends and bridges not checked
EC50, agonist activity, Aequorin assay [3]: 4.5 nM
